This data set addresses VEGF165 (UniProt P15692-4 27-191). The data set is described as follows: hydrogel sequestration, anti-VEGFA immunofluorescence (confocal); aptamer tethered in GelMA hydrogel, 10 ng VEGF 1 h; GelMA region without aptamer about 16% of the aptamer-region signal; 0.1% BSA in DPBS, 37 °C, 10 ng VEGF in 1 ml for 1 h, wash, 24 h at 37 °C; 25 µM aptamer in 5% GelMA. The following applies: protein: commercial; chain copies: 2; single strand, covalently tethered in GelMA hydrogel.

Chain of VEGF165 (P15692 other isoform, or with tags, fused parts or gaps): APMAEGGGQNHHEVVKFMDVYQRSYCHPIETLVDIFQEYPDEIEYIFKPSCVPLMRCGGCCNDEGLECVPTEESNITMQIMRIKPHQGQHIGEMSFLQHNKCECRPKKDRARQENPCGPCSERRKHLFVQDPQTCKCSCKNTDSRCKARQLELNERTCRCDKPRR

On to CGATCGTATCAGTCCACAAGCCCGTCTTCCAGACAAGAGTGCAGGGC (ssDNA, 5'-acrydite) [VEGF165-specific 5'-acrydite aptamer], for which the binding result is recorded as “binds”.

(Values after paper PMC9898740, “Spatial control of self-organizing vascular networks with programmable aptamer-tethered growth factor photopatterning”.)
